According to paper PMC11211491, “Design of a covalent protein-protein interaction inhibitor of SRPKs to suppress angiogenesis and invasion of cancer cells” (Communications Chemistry, 2024):
aryl‑sulfonyl fluoride = aryl-sulfonyl fluoride group, a lysine-reactive covalent warhead for SuFEx reactions

Target: SRPK1ΔNS3 (UniProt Q96SB4)

B1: DBS1-1 (peptide)
peptide: Ac-RERARTRRK(aryl‑sulfonyl fluoride)RARTRERARTR-NH2
For B1, the IC50 of inhibition of the phosphorylation of SRSF1 by SRPK1ΔNS3 (in vitro kinase assay, [32P]ATP); blocked pair SRPK1-SRSF1 was 640 nM.
